Measured values: US6730480B1, “Sphingosine kinase enzyme” (Johnson & Johnson Pharmaceutical Research and Development …, priority 1999, dated 2004)
Positions count from the first letter of the chain named.

Experiments:
[1] = system: sphingosine kinase activity in HEK293 cells; experiment: Transient expression of hSK and TNFα stimulation of sphingosine kinase activity in HEK293 cells; format: cell-based, human
Protocol: (§1) Sphingosine kinase activity was routinely determined using D-erythro-sphingosine and [γ^32P]ATP as substrates, essentially as previously described (Olivera et al., 1998) with some modifications. Briefly, assays were performed by incubating samples at 37° C. for 30 min with sphingosine (100 μM stock dissolved in 5% Triton X-100) and [γ-^32P]ATP (1 mM; 10 μCi/ml) in assay buffer containing 100 mM Tris/HCl (pH 7.4), 10 mM MgCl2 10% (v/v) glycerol, 1 mM dithiothreitol, 1 mM EGTA, 1 mM Na3VO4, 15 mM NaF, 0.5 mM 4-deoxypyridoxine in a total volume of 100 μl. Reactions were terminated and sphingosine-1-phosphate extracted by the addition of 700 μl of chloroform/methanol/HCl (100:200:1. v/v), followed by vigorous mixing, addition of 200 μp of chloroform and 200 μl of 2 M KCl, and phase separation by centrifugation. The labeled S1P in the organic phase was isolated by TLC on Silica Gel 60 with 1-butanol/ethanol/acetic acid/water (8:2:1:2, v/v) and quantitated by phosphorimager (Molecular Dynamics. Sunnyvale, Calif.). One unit (U) of activity is defined as 1pmol of S1P formed per minute.
For mammalian cell expression the hSK cDNA was FLAG epitope tagged at the 3′-end by PFU polymerase PCR with oligonucleotide primers T7 and 5′-[…]-3′ [SEQ ID NO:5]. […] The orientation was determined by restriction analysis and sequencing verified the integrity of the hSK-FLAG cDNA sequence. […]

[2] = system: sphingosine kinase activity in HUVEC; experiment: TNFα stimulation of sphingosine kinase activity in HUVEC extracts; format: cell-based, human; conditions: TNFα treated HUVEC (untreated HUVEC 78)
Protocol: as §1
Human umbilical vein endothelial cells (HUVEC) were isolated as previously described (Wall et al., 1978) and cultured on gelatin-coated culture flasks in medium M199 with Earle's salts supplemented with 20% fetal calf serum, 25 μg/ml endothelial growth supplement (Collaborative Research) and 25 μg/ml heparin. […]

[3] = substrate: CCCCCCCCCCCCC/C=C/[C@@H](O)[C@@H](N)CO; experiment: Sphingosine kinase enzyme assay with native SK purified from human placenta; format: biochemical; conditions: other: Native SK, 37.0 °C
Protocol: The substrates examined were added to a final concentration of 100 μM in 0.25% (w/v) Triton X-100, and assayed under the standard assay conditions outlined earlier.
Substrate kinetics were determined by supplying substrates over the concentration range of 0.5 to 200 μM for sphingosine analogues, and 5 to 1000 μM for ATP. Inhibition kinetics were determined by the use of inhibitors over a concentration range of 2 to 50 μM (Table 5). In both cases the data were analysed by non-linear regression.
The effect of metal ions on the activity of the native and recombinant sphingosine kinases were determined by assaying the activity under standard conditions in the presence of various metal ions or EDTA at 10 mM.

[4] = substrate: CCCCCCCCCCCCC/C=C/[C@@H](O)[C@@H](N)CO; experiment: Sphingosine kinase enzyme assay with recombinant human SK expressed in E. coli; format: biochemical; conditions: other: Recombinant SK
[5] = format: physicochemical, human; conditions: pH range 4 to 11, 50 mM buffers, 37° C.
Protocol: The effect of pH on the activity of the isolated sphingosine kinases was determined over the pH range 4.0 to 11.0 in 50 mM buffers (sodium acetate, pH 4.0-5.0; Mes, pH 6.0-7.0; Hepes, pH 7.0-8.2; Tris/HCl, pH 8.2-10.0: Caps, pH 10.0-11.0) at 37° C. pH stability was determined by assaying the residual activity after pre-incubation of the enzymes in the same buffers for 5 h at 4° C. Similarly, thermal stabilities were determined by assaying the residual activity after pre-incubation of the enzymes at various temperatures (4-80° C.) for 30 min at pH 7.4 (50 mM Tris/HCl containing 10% glycerol, 0.5 M NaCl and 0.05% Triton X-100). Substrate kinetics were analysed using Michaelis-Menten kinetics with a weighted non-linear regression program (Easterby, 1996). Since sphingosine and its analogues were added to the enzyme assays in mixed micelles with Triton X-100, where they exibit surface dilution kinetics (Buehrer and Bell. 1992), all K, and KC values obtained for these molecules were expressed as mol % of Triton X-100, rather than as bulk solution concentrations. […]
Thermal stabilities of the native and recombinant sphingosine kinases were determined by assaying the residual activity remaining after preincubation of the enzymes at various temperatures (4 to 80° C.) for 30 min at pH 7.4 (50 mM Tris/HCl containing 10% glycerol, 0.5M NaCl and 0.05% Triton X-100). […]

[6] = sphingosine supplied as a sphingosine-BSA complex
[7] = substrate kinetics, bulk solution concentration

## TNFα
[1]; hSK-transfected HEK293 cells, TNFα 1 ng/ml, 10 min
  Increase in sphingosine kinase activity after TNFα treatment: approximately 2 fold
[2]
  Total sphingosine kinase activity in cell extract: 136 U/mg proteins

B1: native sphingosine kinase (human placenta SK1) (Homo sapiens) (protein)
chain: MDPAGGPRGVLPRPCRVLVLLNPRGGKGKALQLFRSHVQPLLAEAEISFTLMLTERRNHARELVRSEELGRWDALVVMSGDGLMHEVVNGLMERPDWETAIQKPLCSLPAGSGNALAASLNHYAGYEQVTNEDLLTNCTLLLCRRLLSPMNLLSLHTASGLRLFSVLSLAWGFIADVDLESEKYRRLGEMRFTLGTFLRLAALRTYRGRLAYLPVGRVGSKTPASPVVVQQGPVDAHLVPLEEPVPSHWTVVPDEDFVLVLALLHSHLGSEMFAAPMGRCAAGVMHLFYVRAGVSRAMLLRLFLAMEKGRHMEYECPYLVYVPVVAFRLEPKDGKGVFAVDGELMVSEAVQGQVHPNYFWMVSGCVEPPPSWKPQQMPPPEEPL
notes: from tissue; host or cells: human placenta
[3]; [6]
  kcat: 28 s⁻¹
[3]; [7]
  Km: 14 ± 2 µM
  kcat: 50 s⁻¹
  kcat/Km: 3.6e+06 M⁻¹ s⁻¹

B2: recombinant human sphingosine kinase (Homo sapiens) (protein)
chain: B1 chain
notes: The full length SPHK cDNA cloned into pGEX4T2 was transformed into E. coli BL21; GST (N, cleaved yes); made in house; host or cells: E. coli BL21
[4]; [6]
  kcat: 39 s⁻¹
[4]; [7]
  Km: 12 ± 3 µM
  kcat: 85 s⁻¹
  kcat/Km: 7.1e+06 M⁻¹ s⁻¹

B3: recombinant sphingosine kinase: hSK expressed as GST fusion in E. coli BL21, thrombin-cleaved and purified (protein)
chain: B1 chain with V337M
[5]
  pH of maximum activity: 7.4

B4: native sphingosine kinase: sphingosine kinase SK1 purified to homogeneity from human placenta (protein, UniProt Q9NYA1 1-384, looked up)
Sphingosine kinase 1: B1 chain
[5]
  pH of maximum activity: 7.4

B5: hSK: human sphingosine kinase encoded by the cloned cDNA, SEQ ID NO:2 (protein)
chain: B1 chain with V337M
[1]; HEK293 cells, pcDNA3-hSK, versus untransfected or empty vector
  Increase in sphingosine kinase activity on transient expression: 3200 fold
